Reference: patent publication US8389575B2, “Control of enzymatic peracid generation” (E.I. du Pont de Nemours and Company, priority 2008, dated 2013)

Assay: Peracetic acid production by Thermotoga neapolitana perhydrolase, control by bicarbonate buffer concentration
Assay type: biochemical
Conditions: 100 mM triacetin
Description: A cell extract of an E. coli transformant expressing perhydrolase from Thermotoga neapolitana (KLP18/pSW196) was prepared by passing a suspension of cell paste (20 wt % wet cell weight) in 0.05 M potassium phosphate buffer (pH 7.0) containing dithiothreitol (1 mM) twice through a French press having a working pressure of 16,000 psi (˜110 MPa). The crude extract was then centrifuged at 20,000×g to remove cellular debris, producing a clarified cell extract that was assayed for total soluble protein (Bicinchoninic Acid Kit for Protein Determination, Sigma Aldrich catalog #BCA1-KT). The clarified extract was heated for 20 min at 75° C., followed immediately by cooling in an ice/water bath. The resulting mixture was centrifuged to remove precipitated protein, and the supernatant collected and assayed for total soluble protein as before. […] The supernatant was frozen in dry ice and stored at −80° C.
Reactions (10 mL total volume) containing triacetin, hydrogen peroxide and heat-treated, centrifuged cell extract supernatant (prepared as described above) were run at 25° C. using sodium bicarbonate buffer concentrations listed in Tables 7 and 8. A control reaction for each reaction condition was run to determine the concentration of peracetic acid produced by chemical perhydrolysis of triacetin by hydrogen peroxide in the absence of added extract protein. Determination of the concentration of peracetic acid in the reaction mixtures was performed according to the method described by Karst et al., supra. Aliquots (0.040 mL) of the reaction mixture were removed at predetermined times and mixed with 0.960 mL of 5 mM phosphoric acid in water; adjustment of the pH of the diluted sample to less than pH 4 immediately terminated the reaction. The resulting solution was filtered using an ULTRAFREE® MC-filter unit (30,000 Normal Molecular Weight Limit (NMWL), Millipore cat #UFC3LKT 00) by centrifugation for 2 min at 12,000 rpm. An aliquot (0.100 mL) of the resulting filtrate was transferred to L5-mL screw cap HPLC vial (Agilent Technologies, Palo Alto, Calif.; #5182-0715) containing 0.300 mL of deionized water, then 0.100 mL of 20 mM MTS (methyl-p-tolyl-sulfide) in acetonitrile was added, the vials capped, and the contents briefly mixed prior to a 10 min incubation at ca. 25° C. in the absence of light. To each vial was then added 0.400 mL of acetonitrile and 0.100 mL of a solution of triphenylphosphine (TPP, 40 mM) in acetonitrile, the vials re-capped, and the resulting solution mixed and incubated at ca. 25° C. for 30 min in the absence of light. To each vial was then added 0.100 mL of 10 mM N,N-diethyl-m-toluamide (DEET; HPLC external standard) and the resulting solution analyzed by HPLC as described below.
Supelco Discovery C8 column (10-cm×4.0-mm, 5 μm) (cat. #569422-U) w/precolumn Supelco Supelguard Discovery C8 (Sigma-Aldrich; cat #59590-U); 10 microliter injection volume; gradient method with CH3CN (Sigma-Aldrich; #270717) and deionized water at 1.0 mL/min and ambient temperature:
The peracetic acid concentrations produced in 1 min, 5 min and 30 min when using either 250 mM or 100 mM hydrogen peroxide are listed in Table 7 and Table 8, respectively.

PAA (ppm), 1 min (NaHCO3 0 mM, initial pH 5.0, 1 min, 100 mM H2O2, 50 μg/mL heated extract total protein): 0 ppm
PAA (ppm), 1 min (NaHCO3 0 mM, initial pH 5.0, 1 min, 250 mM H2O2, 50 μg/mL heated extract total protein): 161 ppm
PAA (ppm), 5 min (NaHCO3 0 mM, initial pH 5.0, 5 min, 100 mM H2O2, 50 μg/mL heated extract total protein): 29 ppm
PAA (ppm), 5 min (NaHCO3 0 mM, initial pH 5.0, 5 min, 250 mM H2O2, 50 μg/mL heated extract total protein): 152 ppm
PAA (ppm), 30 min (NaHCO3 0 mM, initial pH 5.0, 30 min, 100 mM H2O2, 50 μg/mL heated extract total protein): 11 ppm
PAA (ppm), 30 min (NaHCO3 0 mM, initial pH 5.0, 30 min, 250 mM H2O2, 50 μg/mL heated extract total protein): 180 ppm
PAA (ppm), 1 min (NaHCO3 1.0 mM, initial pH 6.0, 1 min, 100 mM H2O2, 50 μg/mL heated extract total protein): 167 ppm
PAA (ppm), 1 min (NaHCO3 1.0 mM, initial pH 6.0, 1 min, 250 mM H2O2, 50 μg/mL heated extract total protein): 511 ppm
PAA (ppm), 5 min (NaHCO3 1.0 mM, initial pH 6.0, 5 min, 100 mM H2O2, 50 μg/mL heated extract total protein): 152 ppm
PAA (ppm), 5 min (NaHCO3 1.0 mM, initial pH 6.0, 5 min, 250 mM H2O2, 50 μg/mL heated extract total protein): 610 ppm
PAA (ppm), 30 min (NaHCO3 1.0 mM, initial pH 6.0, 30 min, 100 mM H2O2, 50 μg/mL heated extract total protein): 176 ppm
PAA (ppm), 30 min (NaHCO3 1.0 mM, initial pH 6.0, 30 min, 250 mM H2O2, 50 μg/mL heated extract total protein): 608 ppm
PAA (ppm), 1 min (NaHCO3 2.5 mM, initial pH 6.5, 1 min, 100 mM H2O2, 50 μg/mL heated extract total protein): 291 ppm
PAA (ppm), 1 min (NaHCO3 2.5 mM, initial pH 6.5, 1 min, 250 mM H2O2, 50 μg/mL heated extract total protein): 718 ppm
PAA (ppm), 5 min (NaHCO3 2.5 mM, initial pH 6.5, 5 min, 100 mM H2O2, 50 μg/mL heated extract total protein): 510 ppm
PAA (ppm), 5 min (NaHCO3 2.5 mM, initial pH 6.5, 5 min, 250 mM H2O2, 50 μg/mL heated extract total protein): 1242 ppm
PAA (ppm), 30 min (NaHCO3 2.5 mM, initial pH 6.5, 30 min, 100 mM H2O2, 50 μg/mL heated extract total protein): 488 ppm
PAA (ppm), 30 min (NaHCO3 2.5 mM, initial pH 6.5, 30 min, 250 mM H2O2, 50 μg/mL heated extract total protein): 1179 ppm
PAA (ppm), 1 min (NaHCO3 5.0 mM, initial pH 6.5, 1 min, 100 mM H2O2, 50 μg/mL heated extract total protein): 377 ppm
PAA (ppm), 1 min (NaHCO3 5.0 mM, initial pH 6.5, 1 min, 250 mM H2O2, 50 μg/mL heated extract total protein): 866 ppm
PAA (ppm), 5 min (NaHCO3 5.0 mM, initial pH 6.5, 5 min, 100 mM H2O2, 50 μg/mL heated extract total protein): 955 ppm
PAA (ppm), 5 min (NaHCO3 5.0 mM, initial pH 6.5, 5 min, 250 mM H2O2, 50 μg/mL heated extract total protein): 1894 ppm
PAA (ppm), 30 min (NaHCO3 5.0 mM, initial pH 6.5, 30 min, 100 mM H2O2, 50 μg/mL heated extract total protein): 989 ppm
PAA (ppm), 30 min (NaHCO3 5.0 mM, initial pH 6.5, 30 min, 250 mM H2O2, 50 μg/mL heated extract total protein): 1931 ppm
PAA (ppm), 1 min (NaHCO3 10 mM, initial pH 7.0, 1 min, 250 mM H2O2, 50 μg/mL heated extract total protein): 1042 ppm
PAA (ppm), 5 min (NaHCO3 10 mM, initial pH 7.0, 5 min, 250 mM H2O2, 50 μg/mL heated extract total protein): 2334 ppm
PAA (ppm), 30 min (NaHCO3 10 mM, initial pH 7.0, 30 min, 250 mM H2O2, 50 μg/mL heated extract total protein): 2384 ppm
PAA (ppm), 1 min (NaHCO3 10 mM, initial pH 8.1, 1 min, 100 mM H2O2, 50 μg/mL heated extract total protein): 418 ppm
PAA (ppm), 5 min (NaHCO3 10 mM, initial pH 8.1, 5 min, 100 mM H2O2, 50 μg/mL heated extract total protein): 1035 ppm
PAA (ppm), 30 min (NaHCO3 10 mM, initial pH 8.1, 30 min, 100 mM H2O2, 50 μg/mL heated extract total protein): 1633 ppm
PAA (ppm), 1 min (NaHCO3 25 mM, initial pH 8.1, 1 min, 100 mM H2O2, 50 μg/mL heated extract total protein): 497 ppm
PAA (ppm), 1 min (NaHCO3 25 mM, initial pH 8.1, 1 min, 250 mM H2O2, 50 μg/mL heated extract total protein): 1037 ppm
PAA (ppm), 5 min (NaHCO3 25 mM, initial pH 8.1, 5 min, 100 mM H2O2, 50 μg/mL heated extract total protein): 1319 ppm
PAA (ppm), 5 min (NaHCO3 25 mM, initial pH 8.1, 5 min, 250 mM H2O2, 50 μg/mL heated extract total protein): 2655 ppm
PAA (ppm), 30 min (NaHCO3 25 mM, initial pH 8.1, 30 min, 100 mM H2O2, 50 μg/mL heated extract total protein): 2095 ppm
PAA (ppm), 30 min (NaHCO3 25 mM, initial pH 8.1, 30 min, 250 mM H2O2, 50 μg/mL heated extract total protein): 3503 ppm
B1: Thermotoga neapolitana perhydrolase: acetyl xylan esterase with perhydrolase activity from Thermotoga neapolitana (SEQ ID NO: 14), cell extract of E. coli KLP18/pSW196 (protein, listed as Thermotoga neapolitana)
chain: MAFFDMPLEELKKYRPERYEEKDFDEFWRETLKESEGFPLDPVFEKVDFHLKTVETYDVTFSGYRGQRIKGWLLVPKLAEEKLPCVVQYIGYNGGRGFPHDWLFWPSMGYICFVMDTRGQGSGWMKGDTPDYPEGPVDPQYPGFMTRGILDPGTYYYRRVFVDAVRAVEAAISFPRVDSRKVVVAGGSQGGGIALAVSALSNRVKALLCDVPFLCHFRRAVQLVDTHPYVEITNFLKTHRDKEEIVFRTLSYFDGVNFAARAKVPALFSVGLMDTICPPSTVFAAYNHYAGPKEIRIYPYNNHEGGGSFQAIEQVKFLKRLFEEG
